This note sets out measurements from article PMC4338599.

Assay in all cases: SPR
A general note: In SPR one partner is held on a chip, and binding of the other changes the refractive index at the surface.

In data set [1] the target is Ku70-Ku80 heterodimer (Ku);PAXX V199A/F201A V199A;F201A (human?;human) (UniProt P12956+P13010+Q9BUH6).
Data set [2] has as its target Ku70-Ku80 heterodimer (Ku) (UniProt P12956+P13010).
Data set [3] has as its target Ku70-Ku80 heterodimer (Ku);PAXX WT (PAXX1-204, C9orf142) (human?;human) (UniProt P12956+P13010+Q9BUH6).

Ku70-Ku80 heterodimer (Ku);PAXX V199A/F201A V199A;F201A (human?;human), sequence (P12956 whole entry, chain 1 of 3): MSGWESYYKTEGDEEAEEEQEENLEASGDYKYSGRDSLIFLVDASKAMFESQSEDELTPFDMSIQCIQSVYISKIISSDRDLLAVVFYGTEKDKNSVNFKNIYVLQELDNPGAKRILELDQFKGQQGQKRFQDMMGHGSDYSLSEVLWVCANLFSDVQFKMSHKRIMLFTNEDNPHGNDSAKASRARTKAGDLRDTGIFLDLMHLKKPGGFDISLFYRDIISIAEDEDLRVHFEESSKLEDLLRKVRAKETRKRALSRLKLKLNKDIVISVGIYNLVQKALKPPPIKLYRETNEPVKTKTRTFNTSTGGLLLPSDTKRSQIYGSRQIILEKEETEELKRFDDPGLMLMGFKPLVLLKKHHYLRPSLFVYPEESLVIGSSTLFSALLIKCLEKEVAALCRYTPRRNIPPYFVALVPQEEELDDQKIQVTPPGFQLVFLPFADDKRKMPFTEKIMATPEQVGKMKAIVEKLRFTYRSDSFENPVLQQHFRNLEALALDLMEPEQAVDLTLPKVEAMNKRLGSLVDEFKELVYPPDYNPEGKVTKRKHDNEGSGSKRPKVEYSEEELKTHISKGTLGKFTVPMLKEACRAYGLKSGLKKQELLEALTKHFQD
Ku70-Ku80 heterodimer (Ku);PAXX V199A/F201A V199A;F201A (human?;human), sequence (P13010 whole entry, chain 2 of 3): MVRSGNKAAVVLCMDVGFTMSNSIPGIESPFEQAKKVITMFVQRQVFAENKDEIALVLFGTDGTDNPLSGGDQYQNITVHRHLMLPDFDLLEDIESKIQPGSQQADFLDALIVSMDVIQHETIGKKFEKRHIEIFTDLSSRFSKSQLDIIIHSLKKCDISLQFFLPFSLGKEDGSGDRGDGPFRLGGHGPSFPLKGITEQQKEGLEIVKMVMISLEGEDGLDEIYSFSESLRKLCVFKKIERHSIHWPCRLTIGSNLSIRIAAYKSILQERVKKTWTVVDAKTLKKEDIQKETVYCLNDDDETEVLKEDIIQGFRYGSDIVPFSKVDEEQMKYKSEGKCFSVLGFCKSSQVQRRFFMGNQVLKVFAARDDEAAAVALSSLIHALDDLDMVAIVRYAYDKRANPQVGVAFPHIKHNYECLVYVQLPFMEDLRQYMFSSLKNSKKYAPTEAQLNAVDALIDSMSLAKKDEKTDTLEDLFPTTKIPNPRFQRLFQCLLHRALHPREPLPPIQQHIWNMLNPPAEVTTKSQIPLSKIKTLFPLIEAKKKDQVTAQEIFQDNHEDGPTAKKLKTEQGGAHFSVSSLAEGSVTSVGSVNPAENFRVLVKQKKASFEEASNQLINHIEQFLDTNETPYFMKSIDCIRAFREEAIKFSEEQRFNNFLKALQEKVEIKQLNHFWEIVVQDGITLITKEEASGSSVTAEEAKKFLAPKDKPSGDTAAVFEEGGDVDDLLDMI
Ku70-Ku80 heterodimer (Ku);PAXX V199A/F201A V199A;F201A (human?;human), sequence (Q9BUH6 whole entry V199A/F201A, chain 3 of 3): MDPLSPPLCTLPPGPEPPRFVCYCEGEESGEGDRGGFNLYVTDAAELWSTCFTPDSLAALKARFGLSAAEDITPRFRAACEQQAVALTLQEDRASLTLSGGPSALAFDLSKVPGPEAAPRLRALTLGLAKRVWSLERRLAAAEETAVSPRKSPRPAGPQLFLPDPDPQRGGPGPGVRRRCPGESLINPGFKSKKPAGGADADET
Ku70-Ku80 heterodimer (Ku), sequence (P12956 whole entry, chain 1 of 2): as the sequence (P12956 whole entry, chain 1 of 3) above
Ku70-Ku80 heterodimer (Ku), sequence (P13010 whole entry, chain 2 of 2): as the sequence (P13010 whole entry, chain 2 of 3) above
Ku70-Ku80 heterodimer (Ku);PAXX WT (PAXX1-204, C9orf142) (human?;human), sequence (P12956 whole entry, chain 1 of 3): as the sequence (P12956 whole entry, chain 1 of 3) above
Ku70-Ku80 heterodimer (Ku);PAXX WT (PAXX1-204, C9orf142) (human?;human), sequence (P13010 whole entry, chain 2 of 3): as the sequence (P13010 whole entry, chain 2 of 3) above
Ku70-Ku80 heterodimer (Ku);PAXX WT (PAXX1-204, C9orf142) (human?;human), sequence (Q9BUH6 whole entry, chain 3 of 3): as the sequence (Q9BUH6 whole entry V199A/F201A, chain 3 of 3) above, with A199V, A201F counted along it

Regarding “ATATATCCATGGCTGCCTCACAAACTTCACAAACTGTTGCATCTCACGTTCCTTTTGCAGATTTGTGTTCAACTTTAGAACGAATACAGAAAAGTAAAGGACGTGCA (double strand) [107-bp biotinylated LIG4 PCR fragment]”, the values for the binding entry in data set [1], in data set [2] and in data set [3] were “no binding”, “binds” and “binds”, respectively.
